From patent US20210139559A1

Biological target: human VEGF165 ligand (human) (UniProt P15692)
Assay: serial dilution mixed with 50 pM human VEGF165 in solution, unbound VEGF165 measured by ELISA

human VEGF165 ligand (human), sequence (P15692 other isoform, or with tags, fused parts or gaps limits assumed): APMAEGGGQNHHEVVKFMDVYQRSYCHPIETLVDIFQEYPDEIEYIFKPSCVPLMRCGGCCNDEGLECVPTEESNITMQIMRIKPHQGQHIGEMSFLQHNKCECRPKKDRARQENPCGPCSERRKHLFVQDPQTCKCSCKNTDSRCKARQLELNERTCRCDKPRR

Question: With Aflibercept (Fc fusion) as the substance, how does the IC50 read?
Answer: The IC50 was 9.82 pM.
